Earlier results on two substances are cited in PMC11899465.

Like-named read-outs stand apart in the source and are kept apart here.

Series [1] deals with CD137 (Homo sapiens) (UniProt Q07011).
For series [2] the target is unchanged. The source holds these as a separate data set.

CD137 (Homo sapiens), sequence (Q07011 24-255): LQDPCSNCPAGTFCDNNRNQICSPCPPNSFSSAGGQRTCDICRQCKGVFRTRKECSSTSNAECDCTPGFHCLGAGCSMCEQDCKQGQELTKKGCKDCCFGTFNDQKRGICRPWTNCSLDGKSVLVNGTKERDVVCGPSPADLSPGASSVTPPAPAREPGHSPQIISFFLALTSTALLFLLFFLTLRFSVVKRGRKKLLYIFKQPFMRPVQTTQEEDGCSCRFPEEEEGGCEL
CD137L (homotrimer), sequence (P41273 whole entry): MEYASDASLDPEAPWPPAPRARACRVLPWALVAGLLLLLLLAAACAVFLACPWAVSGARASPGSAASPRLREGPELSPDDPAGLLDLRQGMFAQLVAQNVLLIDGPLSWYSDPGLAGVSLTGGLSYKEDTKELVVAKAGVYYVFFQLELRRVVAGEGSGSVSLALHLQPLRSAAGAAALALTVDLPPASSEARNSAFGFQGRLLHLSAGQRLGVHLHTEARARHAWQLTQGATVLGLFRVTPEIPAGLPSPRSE
CD137L (monomer), sequence (P41273 whole entry): as above

On to “CD137L (homotrimer) (from UniProt P41273)”, for which the equilibrium dissociation constant (Kd) with CD137 (Homo sapiens) [1] was 1.2 nM.
For the substance CD137L (monomer) (from UniProt P41273), in the series with CD137 (Homo sapiens) [2], the Kd is 55.2 nM.

As a reminder, the Kd is the free concentration of one partner at which half of the binding sites on the other are occupied at equilibrium, for simple one-to-one binding.
